Publication PMC4209802
Like-named read-outs stand apart in the source and are kept apart here.

Legend:
Experiment in all cases: FRET or BRET
P14 TCR vβ8 chain [1] = target: P14 TCR vβ8 chain
OT-I TCR vβ5 chain [2] = target: OT-I TCR vβ5 chain
P14 TCR vβ8 chain [3] = target: P14 TCR vβ8 chain; remark: listed apart in the source
P14 TCR vβ8 chain [4] = target: P14 TCR vβ8 chain; remark: listed apart in the source
P14 TCR vβ8 chain [5] = target: P14 TCR vβ8 chain; remark: listed apart in the source
OT-I TCR vβ5 chain [6] = target: OT-I TCR vβ5 chain; remark: listed apart in the source
P14 TCR vβ8 chain [7] = target: P14 TCR vβ8 chain; remark: listed apart in the source
P14 TCR vβ8 chain [8] = target: P14 TCR vβ8 chain; remark: listed apart in the source
OT-I TCR vβ5 chain [9] = target: OT-I TCR vβ5 chain; remark: listed apart in the source
P14 TCR vβ8 chain [10] = target: P14 TCR vβ8 chain; remark: listed apart in the source
OT-I TCR vβ5 chain [11] = target: OT-I TCR vβ5 chain; remark: listed apart in the source

| FRET efficiency (P14 TCR vβ8 chain [1]) | FRET efficiency (OT-I TCR vβ5 chain [2]) | FRET efficiency (P14 TCR vβ8 chain [3]) | FRET efficiency (P14 TCR vβ8 chain [4]) | FRET efficiency (P14 TCR vβ8 chain [5]) | FRET efficiency (OT-I TCR vβ5 chain [6]) | FRET efficiency (P14 TCR vβ8 chain [7]) | FRET efficiency (P14 TCR vβ8 chain [8]) | FRET efficiency (OT-I TCR vβ5 chain [9]) | FRET efficiency (P14 TCR vβ8 chain [10]) | FRET efficiency (OT-I TCR vβ5 chain [11]) | Substance |
| --- | --- | --- | --- | --- | --- | --- | --- | --- | --- | --- | --- |
| 35% | 12% | 19% | 27% | 10% | 28% | 26% | 27% | 12% | 23.3% |  | P14 TCR vα2 chain with two N-terminal myc tags |
|  | 25% | 21% |  | 16% |  |  |  | 32.5% | 22.6% | 33.7% | OT-I TCR vα2 chain with N-terminal HA tag |
